In one experiment the target is T1, S. pombe Uba1 (S. pombe) (UniProt O94609).
T1 sequence: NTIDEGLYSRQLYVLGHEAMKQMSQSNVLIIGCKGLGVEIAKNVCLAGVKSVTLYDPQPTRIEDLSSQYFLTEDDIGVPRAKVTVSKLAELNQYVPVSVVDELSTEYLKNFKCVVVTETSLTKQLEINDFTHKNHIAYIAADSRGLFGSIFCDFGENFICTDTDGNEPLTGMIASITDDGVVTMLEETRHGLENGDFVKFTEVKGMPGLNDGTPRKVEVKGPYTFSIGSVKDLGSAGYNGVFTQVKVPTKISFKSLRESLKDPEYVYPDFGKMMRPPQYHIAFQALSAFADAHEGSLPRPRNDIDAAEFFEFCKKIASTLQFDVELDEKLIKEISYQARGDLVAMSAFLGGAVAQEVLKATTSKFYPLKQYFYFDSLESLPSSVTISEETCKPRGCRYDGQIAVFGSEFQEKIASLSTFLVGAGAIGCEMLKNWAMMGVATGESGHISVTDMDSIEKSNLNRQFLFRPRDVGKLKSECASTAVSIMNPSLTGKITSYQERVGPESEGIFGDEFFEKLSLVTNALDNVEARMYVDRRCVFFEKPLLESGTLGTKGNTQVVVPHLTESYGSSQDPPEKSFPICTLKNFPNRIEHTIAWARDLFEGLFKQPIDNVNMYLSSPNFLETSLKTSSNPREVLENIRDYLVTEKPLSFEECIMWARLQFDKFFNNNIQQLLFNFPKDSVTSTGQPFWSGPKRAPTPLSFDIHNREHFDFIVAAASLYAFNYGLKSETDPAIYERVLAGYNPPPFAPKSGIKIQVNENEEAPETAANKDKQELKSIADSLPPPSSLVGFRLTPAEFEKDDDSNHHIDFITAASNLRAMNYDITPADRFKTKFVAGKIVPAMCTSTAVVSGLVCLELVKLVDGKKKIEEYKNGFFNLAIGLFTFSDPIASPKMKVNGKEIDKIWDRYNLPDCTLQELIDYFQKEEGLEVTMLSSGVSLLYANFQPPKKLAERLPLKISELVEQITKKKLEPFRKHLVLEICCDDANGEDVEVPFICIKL

Experiment [1] concerns the target T2, S. cerevisiae Uba1 (a.a. 11–1024) (S. cerevisiae, UniProt P22515 11-1024, in the crystal: disulfide bond between the Uba1 and Cdc34 catalytic cysteines (cross-link)).
T2 construct: residues 11-773 and 797-1024 built in the model; Cross-linked to Cdc34 only for the crystal; not cross-linked in the thioester transfer assays; also called ScUba1; E1; source: E. coli BL21 (DE3) Codon Plus, purified (Ni-NTA, gel filtration, MonoQ)
In words: crystal structure; S. cerevisiae Uba1-Cdc34^Δdist held by a disulfide bond between the catalytic cysteines, mixed with Ub, 1 mM ATP and 5 mM MgCl2; crystals at 18 °C in 0.2 M ammonium sulfate, 25% PEG 3,350, 0.1 M Bis-Tris pH 6.5; 2.07 Å; two copies in the asymmetric unit. Particulars: both partners purified.

T2 sequence (P22515 11-1024): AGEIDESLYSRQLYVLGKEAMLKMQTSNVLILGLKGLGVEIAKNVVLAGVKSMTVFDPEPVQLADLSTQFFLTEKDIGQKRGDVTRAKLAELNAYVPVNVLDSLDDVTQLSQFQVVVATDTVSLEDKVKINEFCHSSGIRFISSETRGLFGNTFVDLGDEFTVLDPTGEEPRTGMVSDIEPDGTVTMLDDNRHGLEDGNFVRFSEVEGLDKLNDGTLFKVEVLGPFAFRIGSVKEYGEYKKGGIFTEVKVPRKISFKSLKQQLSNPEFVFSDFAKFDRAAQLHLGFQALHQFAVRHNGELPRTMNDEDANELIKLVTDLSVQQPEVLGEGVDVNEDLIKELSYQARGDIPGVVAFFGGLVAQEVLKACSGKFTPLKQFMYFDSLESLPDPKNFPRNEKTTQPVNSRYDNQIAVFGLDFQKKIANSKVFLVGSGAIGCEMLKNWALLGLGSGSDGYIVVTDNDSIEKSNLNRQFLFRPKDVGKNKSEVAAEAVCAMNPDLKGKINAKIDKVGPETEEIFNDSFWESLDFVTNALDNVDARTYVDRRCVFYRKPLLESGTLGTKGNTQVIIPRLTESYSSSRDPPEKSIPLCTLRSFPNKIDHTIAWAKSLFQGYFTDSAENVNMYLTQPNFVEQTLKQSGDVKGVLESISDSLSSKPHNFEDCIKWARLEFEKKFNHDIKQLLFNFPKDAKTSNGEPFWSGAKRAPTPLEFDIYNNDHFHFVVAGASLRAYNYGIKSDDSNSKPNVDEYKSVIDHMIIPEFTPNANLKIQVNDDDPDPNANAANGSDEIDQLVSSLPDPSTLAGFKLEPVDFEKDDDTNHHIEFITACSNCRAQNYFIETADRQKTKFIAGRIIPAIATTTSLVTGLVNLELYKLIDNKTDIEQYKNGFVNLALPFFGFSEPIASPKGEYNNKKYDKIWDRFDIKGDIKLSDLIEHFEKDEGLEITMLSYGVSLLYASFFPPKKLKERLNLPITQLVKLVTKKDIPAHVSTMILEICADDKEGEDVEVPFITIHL

For the molecule “Ubc4 K4S (from UniProt P46595 1-147) (enzyme)”, the E1-E2 thioester transfer assay: Ubc4 K4S (fold loss of activity) in the experiment with S. pombe Uba1 (S. pombe) turned out to be 2.

B1: Ubc15 K12A (enzyme)
chain: MPSSASEQLLRAQLKEIQKNPPQGFSVGLVDDKSIFEWEVMIIGPEDTLYEGGFFHATLSFPQDYPLMPPKMKFTTEIWHPNVHPNGEVCISILHPPGDDKYGYEDAGERWLPVHSPETILISVISMLSSPNDESPANIDAAKEFRENPQEFKKRVRRLVRRSIEMI
In the experiment with S. pombe Uba1 (S. pombe), B1 returned an E1-E2 thioester transfer assay (50 nM E1, 60 s): Ubc15 K12A (fold loss of activity) of 5.

B2: S. cerevisiae Cdc34^Δdist (enzyme, UniProt P14682 1-195, looked up)
chain: MSSRKSTASSLLLRQYRELTDPKKAIPSFHIELEDDSNIFTWNIGVMVLNEDSIYHGGFFKAQMRFPEDFPFSPPQFRFTPAIYHPNVYRDGRLCISILHQSGDPMTDEPDAETWSPVQTVESVLISIVSLLEDPNINSPANVDAAVDYRKNPEQYKQRVKMEVERSKQDIPKGFIMPTSESAYISQSKLDEPES
modifications: in the crystal with Uba1: disulfide bond between the Uba1 and Cdc34 catalytic cysteines (cross-link)
notes: Cdc34, E2 ubiquitin-conjugating enzyme, S. cerevisiae; construct lacking CTD^dist (residues 196-295), made by a stop codon in Cdc34^FL; residues 3-102 and 112-181 built in the complex; Used here also as the wild-type Cdc34 of the thioester transfer assays with Uba1 mutants; also called ScCdc34^Δdist; source: E. coli BL21 (DE3) Codon Plus, purified
For the molecule B2, the binding result in experiment [1] is recorded as “binds”.

These data come from article PMC6656757, “Structural insights into E1 recognition and the ubiquitin-conjugating activity of the E2 enzyme Cdc34” (Nature Communications, 2019).
